In PMC5725915 one finds Kd data, which are given here for one substance.

In the test the target is human factor Xa (human). The experiment in a line: prothrombinase activity titration.
human factor Xa (human), sequence (P00742 whole entry): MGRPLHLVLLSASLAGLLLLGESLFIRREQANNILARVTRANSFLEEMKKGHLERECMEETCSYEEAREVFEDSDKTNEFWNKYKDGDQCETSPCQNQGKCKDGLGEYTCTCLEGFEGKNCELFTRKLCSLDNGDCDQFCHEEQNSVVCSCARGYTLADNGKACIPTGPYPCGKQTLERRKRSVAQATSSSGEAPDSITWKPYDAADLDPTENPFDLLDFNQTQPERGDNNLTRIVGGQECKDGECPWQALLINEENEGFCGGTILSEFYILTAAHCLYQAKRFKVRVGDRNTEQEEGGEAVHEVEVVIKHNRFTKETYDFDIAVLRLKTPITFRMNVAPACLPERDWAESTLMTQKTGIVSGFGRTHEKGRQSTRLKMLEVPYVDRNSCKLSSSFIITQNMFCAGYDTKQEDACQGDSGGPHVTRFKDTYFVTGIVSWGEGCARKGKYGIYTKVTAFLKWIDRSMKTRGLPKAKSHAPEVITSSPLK

In general, Kd refers to the constant that tells how readily two partners part at equilibrium. With “wild-type recombinant human fV activated with thrombin (rhfVa^WT) (from UniProt P12259 29-737; P12259 1574-2224) (complex)”, the Kd was found to be 480 pM.
